Experimental data reported in paper PMC8187723.

Target: recombinant human MXRA8-Fc fusion protein (UniProt Q9BRK3)
Settings: 37 °C; n = 2; parent: est. 19; read off a plot

Ross River virus T48, CPER-recovered wild type, purified virus (E1/E2 envelope glycoproteins on the virion) E2:H64W
Kd: 66 nM
